Data published in the supplement of paper PMC11811203.

B1: THAP1; numbered along this chain (parent)
chain: MVQSCSAYGCKNRYDKDKPVSFHKFPLTRPSLCKEWEAAVRRKNFKPTKYSSICSEHFTPDCFKRECNNKLLKENAVPTIFLCTEPHDKKEDLLEPQEQLPPPPLPPPVSQVDAAIGLLMPPLQTPVNLSVFCDHNYTVEDTMHQRKRIHQLEQQVEKLRKKLKTAQQRCRRQERQLEKLKEVVHFQKEKDDVSERGYVILPNDYFEIVEVPA

Variants of: B1
Test: THAP1 transcriptional activity (GFP+/GFP- enrichment relative to wild-type constructs) (ratio to WT); higher = more THAP1 activity (PSMB5 reporter activation)
Conditions: with PSMB5 promoter-GFP reporter
Method: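 Deep mutational scan of human THAP1. Site-saturation single amino acid variant library (residues 2-213) was expressed by lentivirus at MOI ~0.3 in THAP1-knockout HEK-293T cells carrying an endogenous PSMB5 promoter-GFP knock-in reporter. Five days post-transduction, BFP+ cells were FACS-sorted into GFP dim and GFP bright populations and variants were counted by Illumina sequencing. Activity is the GFP-bright/GFP-dim read fold change, mean of 2 replicates, divided by the mean fold change of wild-type (synonymous) constructs in the same screen pool; WT = 1.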

THAP1 transcriptional activity: each site, then its substitutions
G9: A 0.209, H 0.283, N 0.241, M 0.381, I 0.144, L 0.184, R 0.256, C 0.261, T 0.132, V 0.0945, Q 0.115, W 0.167, Y 0.149, K 0.4, D 0.196, S 0.167, F 0.148, P 0.116
N12: F 0.112, T 0.097, K 0.125, Y 0.149, L 0.0949, S 0.283, C 0.0986, I 0.0667, G 0.0923, A 0.107, W 0.121, E 0.111, R 0.172, M 0.199, P 0.0735, V 0.129, D 0.0987, Q 0.22, H 0.108
C10: E 0.0982, V 0.175, Y 0.106, S 0.308, W 0.125, Q 0.125, M 0.103, T 0.0641, F 0.113, D 0.129, L 0.167, P 0.114, R 0.157, I 0.0687, G 0.098, K 0.156, N 0.121, H 0.0737
K16: Q 0.164, E 0.125, D 0.0673, G 0.17, I 0.197, P 0.334, F 0.117, C 0.121, T 0.136, N 0.0777, Y 0.158, W 0.208, M 0.105, V 0.255, S 0.191, R 0.661, A 0.284, L 0.129, H 0.0905
Q3: T 0.534, R 0.187, N 0.442, V 0.563, M 0.486, W 0.0989, Y 0.149, S 0.278, P 0.186
C5: Q 0.133, D 0.262, T 0.162, N 0.208, S 0.0878, F 0.125, H 0.127, I 0.0585, A 0.147, E 0.115, P 0.0866, K 0.167, Y 0.118, V 0.174, L 0.147, M 0.18, G 0.131, W 0.202, R 0.132
K18: W 0.131, P 0.0831, I 0.444, V 0.618, N 0.432, L 0.367, E 0.152, A 0.356, Q 0.511, T 0.348, C 0.238, M 0.186, S 0.384, R 0.936, D 0.0802, G 0.258, F 0.11, Y 0.142, H 0.202
S6: V 0.541, H 0.106, E 0.153, G 0.123, F 0.149, A 0.787, W 0.163, Y 0.202, N 0.174, T 0.309, I 0.183, P 0.185, R 0.223, M 0.172, D 0.163, C 0.562, L 0.0726, Q 0.103, K 0.122
D17: I 0.0905, P 0.129, T 1.49, E 0.889, M 1.14, W 0.509, F 0.706, V 0.314, S 1.49, Q 1.12, G 0.387, H 1.05, A 1.12, N 0.707, Y 0.747, K 1.31, R 1.11, C 0.541, L 0.861
D15: N 0.605, W 0.122, P 0.107, R 0.656, Y 0.172, C 0.853, T 0.679, Q 1.05, F 0.272, A 0.754, M 0.419, I 0.436, G 0.411, L 0.298, H 0.997, S 0.562, K 0.704, E 0.569, V 0.631
Y14: T 0.0786, I 0.119, F 0.5, A 0.211, R 0.36, C 0.157, V 0.151, M 0.0755, K 0.083, G 0.085, L 0.146, H 0.106, P 0.164, D 0.122, W 0.851, N 0.165, S 0.124, Q 0.142, E 0.0718
S21: F 0.11, E 0.0854, D 0.0962, A 0.0835, C 0.0926
A7: Y 0.218, H 0.179, N 0.133, T 0.0906, Q 0.1, M 0.279, W 0.0983, I 0.165, C 0.163, V 0.612, E 0.154, R 0.122, D 0.0976, S 0.122, K 0.186, G 0.118, P 0.0917, L 0.156, F 0.19
Y8: Q 0.509, C 0.192, W 1.08, H 0.464, D 0.564, E 0.484, V 0.472, K 0.356, F 0.667, I 0.484, M 0.368, R 0.374, N 0.449, A 0.581, G 0.241, L 0.795, P 0.58, S 0.467, T 0.785
V20: K 0.0912, N 0.161, A 0.135, P 0.101, E 0.148, D 0.128, F 0.204, L 0.297, W 0.141, Q 0.139, H 0.115, C 0.141, I 1.71, G 0.125, M 0.155, S 0.0781, T 0.58, Y 0.312, R 0.261
K11: W 0.0942, I 0.265, A 0.284, V 0.529, T 0.513, N 0.629, Y 0.201, P 0.178, E 0.121, M 0.124, G 0.133, R 0.771, H 0.343, S 0.282, C 0.369, D 0.0638, L 0.191, Q 0.354
R13: Y 0.0688, H 0.117, F 0.14, D 0.115, N 0.126, K 0.211, E 0.153, W 0.232, M 0.0992, G 0.106, S 0.133, C 0.132, Q 0.122, I 0.116, V 0.185, T 0.147, P 0.0852, A 0.17, L 0.229
S4: H 0.111, A 0.338, R 0.164, P 0.142, T 0.966, K 0.127, V 0.187, W 0.171, Q 0.114, G 0.254, L 0.241, N 0.14, I 0.182, E 0.103, C 0.233, Y 0.123, D 0.154, F 0.177, M 0.201
P19: V 0.213, Q 0.335, H 0.266, A 0.691, D 0.681, I 0.186, F 0.276, R 0.675, Y 0.197, L 0.412, E 0.528, M 0.208, N 0.682, S 0.78, W 0.162, C 0.529, G 0.547, T 0.681, K 0.674
